Common to all, as to test: yeast scFv FACS
One assay deals with T1, BoNT/C1 holotoxin (Clostridium botulinum, UniProt P18640 2-1291).
T1 sequence: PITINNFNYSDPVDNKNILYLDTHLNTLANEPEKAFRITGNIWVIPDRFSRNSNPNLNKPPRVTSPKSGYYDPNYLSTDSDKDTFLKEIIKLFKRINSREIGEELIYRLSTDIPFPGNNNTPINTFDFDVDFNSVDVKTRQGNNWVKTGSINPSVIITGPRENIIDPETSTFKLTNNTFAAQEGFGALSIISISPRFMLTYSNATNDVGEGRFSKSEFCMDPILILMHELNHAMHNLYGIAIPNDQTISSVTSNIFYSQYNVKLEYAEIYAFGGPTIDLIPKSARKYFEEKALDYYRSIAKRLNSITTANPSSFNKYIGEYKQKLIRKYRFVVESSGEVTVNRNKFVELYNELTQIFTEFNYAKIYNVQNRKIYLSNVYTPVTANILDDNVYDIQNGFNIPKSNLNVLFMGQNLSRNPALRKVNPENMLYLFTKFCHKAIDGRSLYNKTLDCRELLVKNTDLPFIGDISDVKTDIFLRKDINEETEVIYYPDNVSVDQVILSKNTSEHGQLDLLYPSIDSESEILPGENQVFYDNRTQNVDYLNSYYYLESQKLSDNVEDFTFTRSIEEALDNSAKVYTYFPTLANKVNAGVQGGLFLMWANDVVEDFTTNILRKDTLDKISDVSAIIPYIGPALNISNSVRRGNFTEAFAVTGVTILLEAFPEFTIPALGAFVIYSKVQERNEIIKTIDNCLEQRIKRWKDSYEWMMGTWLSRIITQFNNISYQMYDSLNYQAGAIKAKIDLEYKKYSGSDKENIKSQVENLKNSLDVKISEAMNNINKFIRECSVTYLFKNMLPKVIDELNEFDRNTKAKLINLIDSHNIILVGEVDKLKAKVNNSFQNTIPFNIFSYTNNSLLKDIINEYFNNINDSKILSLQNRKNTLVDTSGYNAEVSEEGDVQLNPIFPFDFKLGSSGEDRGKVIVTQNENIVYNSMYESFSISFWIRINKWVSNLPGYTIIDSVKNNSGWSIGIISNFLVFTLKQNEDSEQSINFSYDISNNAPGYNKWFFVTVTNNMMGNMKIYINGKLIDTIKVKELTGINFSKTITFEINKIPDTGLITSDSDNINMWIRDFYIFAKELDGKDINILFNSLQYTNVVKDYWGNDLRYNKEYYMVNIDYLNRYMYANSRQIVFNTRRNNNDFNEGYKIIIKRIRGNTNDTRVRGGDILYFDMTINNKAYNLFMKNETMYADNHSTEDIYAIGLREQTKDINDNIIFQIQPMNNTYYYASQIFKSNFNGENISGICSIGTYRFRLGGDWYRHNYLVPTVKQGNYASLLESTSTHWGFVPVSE

A further assay concerns the target T2, BoNT/D (Clostridium botulinum, UniProt P19321 2-1276).
T2 sequence: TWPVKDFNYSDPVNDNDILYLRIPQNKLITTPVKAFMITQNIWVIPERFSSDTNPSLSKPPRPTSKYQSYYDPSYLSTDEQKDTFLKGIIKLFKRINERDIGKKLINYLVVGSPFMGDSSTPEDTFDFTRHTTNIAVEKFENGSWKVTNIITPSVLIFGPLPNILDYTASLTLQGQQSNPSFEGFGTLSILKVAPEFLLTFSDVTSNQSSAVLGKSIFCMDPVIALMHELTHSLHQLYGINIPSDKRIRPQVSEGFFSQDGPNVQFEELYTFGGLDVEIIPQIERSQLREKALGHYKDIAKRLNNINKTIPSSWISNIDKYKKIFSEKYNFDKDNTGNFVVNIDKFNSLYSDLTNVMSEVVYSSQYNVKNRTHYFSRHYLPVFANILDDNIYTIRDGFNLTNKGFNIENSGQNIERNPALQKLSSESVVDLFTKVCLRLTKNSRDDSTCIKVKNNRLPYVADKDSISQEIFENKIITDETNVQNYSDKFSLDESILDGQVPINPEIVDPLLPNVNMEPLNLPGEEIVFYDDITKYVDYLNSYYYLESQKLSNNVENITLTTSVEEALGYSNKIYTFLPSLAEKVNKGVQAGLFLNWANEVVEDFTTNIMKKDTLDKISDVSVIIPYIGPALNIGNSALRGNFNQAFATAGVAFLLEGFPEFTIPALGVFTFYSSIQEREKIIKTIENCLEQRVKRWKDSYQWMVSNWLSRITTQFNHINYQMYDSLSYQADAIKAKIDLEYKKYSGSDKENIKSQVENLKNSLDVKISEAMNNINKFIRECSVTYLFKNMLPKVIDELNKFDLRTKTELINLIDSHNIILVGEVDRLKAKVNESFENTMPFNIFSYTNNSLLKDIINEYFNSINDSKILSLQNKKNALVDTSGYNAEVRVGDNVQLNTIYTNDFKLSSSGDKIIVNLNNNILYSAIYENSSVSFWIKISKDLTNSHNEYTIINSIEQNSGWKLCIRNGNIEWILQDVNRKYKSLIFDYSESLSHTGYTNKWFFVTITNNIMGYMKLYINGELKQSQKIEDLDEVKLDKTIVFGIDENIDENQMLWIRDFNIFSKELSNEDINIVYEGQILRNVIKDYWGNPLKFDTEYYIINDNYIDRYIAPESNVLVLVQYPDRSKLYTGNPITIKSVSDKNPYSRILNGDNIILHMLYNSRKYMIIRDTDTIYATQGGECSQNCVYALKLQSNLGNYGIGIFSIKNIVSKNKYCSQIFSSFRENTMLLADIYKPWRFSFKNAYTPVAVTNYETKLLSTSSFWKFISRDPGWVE

In assay [1] the target is T3, BoNT/F1 (proteolytic BoNT/F) (Clostridium botulinum, UniProt A7GBG3 1-1278).
T3 sequence: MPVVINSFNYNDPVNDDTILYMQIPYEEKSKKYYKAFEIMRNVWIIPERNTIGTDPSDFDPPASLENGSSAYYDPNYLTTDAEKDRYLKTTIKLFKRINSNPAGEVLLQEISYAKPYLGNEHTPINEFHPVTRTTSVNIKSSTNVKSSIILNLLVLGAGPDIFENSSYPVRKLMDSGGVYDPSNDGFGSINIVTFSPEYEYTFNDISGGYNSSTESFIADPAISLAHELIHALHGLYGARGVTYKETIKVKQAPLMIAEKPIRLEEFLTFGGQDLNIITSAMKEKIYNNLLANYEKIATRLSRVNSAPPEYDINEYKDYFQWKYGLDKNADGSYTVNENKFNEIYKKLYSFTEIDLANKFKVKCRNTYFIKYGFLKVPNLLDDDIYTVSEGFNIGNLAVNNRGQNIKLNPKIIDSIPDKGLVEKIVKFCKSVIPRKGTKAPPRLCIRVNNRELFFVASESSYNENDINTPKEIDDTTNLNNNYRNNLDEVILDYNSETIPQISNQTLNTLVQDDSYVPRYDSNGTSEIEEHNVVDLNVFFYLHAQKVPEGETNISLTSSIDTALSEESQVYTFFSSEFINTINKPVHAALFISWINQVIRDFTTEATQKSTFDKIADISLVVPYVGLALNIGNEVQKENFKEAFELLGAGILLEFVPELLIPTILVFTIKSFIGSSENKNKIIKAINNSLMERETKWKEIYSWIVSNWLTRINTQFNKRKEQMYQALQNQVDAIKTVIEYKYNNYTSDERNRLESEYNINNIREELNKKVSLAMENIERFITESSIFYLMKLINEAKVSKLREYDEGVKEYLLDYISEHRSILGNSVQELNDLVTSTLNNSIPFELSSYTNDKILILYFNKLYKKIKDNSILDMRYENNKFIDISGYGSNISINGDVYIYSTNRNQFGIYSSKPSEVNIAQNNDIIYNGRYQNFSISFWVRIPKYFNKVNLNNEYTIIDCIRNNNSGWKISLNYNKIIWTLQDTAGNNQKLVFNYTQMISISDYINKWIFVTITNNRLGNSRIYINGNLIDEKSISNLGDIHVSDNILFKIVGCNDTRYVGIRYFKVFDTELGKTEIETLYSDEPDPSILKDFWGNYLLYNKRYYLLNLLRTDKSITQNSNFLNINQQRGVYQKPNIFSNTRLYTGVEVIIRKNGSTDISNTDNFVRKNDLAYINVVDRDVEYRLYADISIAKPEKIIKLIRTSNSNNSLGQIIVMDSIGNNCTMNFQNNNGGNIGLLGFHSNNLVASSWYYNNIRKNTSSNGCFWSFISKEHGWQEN

In another assay the target is T4, BoNT/F 202F (Clostridium botulinum, UniProt P30996 1-1274).
T4 sequence: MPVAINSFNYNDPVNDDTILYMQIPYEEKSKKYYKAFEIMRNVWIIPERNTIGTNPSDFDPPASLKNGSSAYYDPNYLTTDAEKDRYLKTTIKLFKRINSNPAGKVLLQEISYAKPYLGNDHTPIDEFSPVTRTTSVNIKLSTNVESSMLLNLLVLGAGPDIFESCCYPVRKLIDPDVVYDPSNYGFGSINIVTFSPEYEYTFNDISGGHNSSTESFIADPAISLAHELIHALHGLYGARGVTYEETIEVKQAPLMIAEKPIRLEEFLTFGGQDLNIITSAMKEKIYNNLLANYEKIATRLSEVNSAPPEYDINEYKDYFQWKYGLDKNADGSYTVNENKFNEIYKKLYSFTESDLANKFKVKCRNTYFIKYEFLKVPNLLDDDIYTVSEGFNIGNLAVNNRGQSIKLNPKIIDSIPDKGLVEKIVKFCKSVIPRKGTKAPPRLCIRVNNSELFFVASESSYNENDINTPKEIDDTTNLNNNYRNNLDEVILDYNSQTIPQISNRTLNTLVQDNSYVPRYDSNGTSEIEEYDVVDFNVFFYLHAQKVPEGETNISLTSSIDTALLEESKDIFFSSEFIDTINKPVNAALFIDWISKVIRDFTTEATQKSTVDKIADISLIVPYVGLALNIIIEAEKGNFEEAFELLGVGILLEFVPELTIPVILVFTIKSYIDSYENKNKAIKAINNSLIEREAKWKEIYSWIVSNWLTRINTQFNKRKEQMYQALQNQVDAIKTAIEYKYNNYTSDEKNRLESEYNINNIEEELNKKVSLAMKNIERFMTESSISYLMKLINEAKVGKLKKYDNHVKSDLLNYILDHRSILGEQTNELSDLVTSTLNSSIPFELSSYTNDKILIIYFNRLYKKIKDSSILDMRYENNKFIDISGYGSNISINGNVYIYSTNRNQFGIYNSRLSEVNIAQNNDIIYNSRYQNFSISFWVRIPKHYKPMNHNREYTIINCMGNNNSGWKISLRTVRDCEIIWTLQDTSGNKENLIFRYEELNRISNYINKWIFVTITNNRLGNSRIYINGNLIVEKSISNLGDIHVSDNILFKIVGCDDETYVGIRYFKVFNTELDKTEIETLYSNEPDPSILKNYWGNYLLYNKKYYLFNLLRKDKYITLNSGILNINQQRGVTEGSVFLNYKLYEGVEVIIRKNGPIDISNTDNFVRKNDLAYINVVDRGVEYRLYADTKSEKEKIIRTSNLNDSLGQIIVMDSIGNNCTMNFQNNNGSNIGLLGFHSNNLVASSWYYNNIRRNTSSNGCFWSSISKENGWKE

Residue numbers refer to the chain shown, from its start.

As usually defined, the Kd is the free concentration of one partner at which half of the binding sites on the other are occupied at equilibrium, for simple one-to-one binding. Read a high Kd as weaker binding.

B1: 8DC13 scFv (scFv, V domains shown)
VH: QVQLVQSGAEVKKPGASVKVSCKASGYTFTGYYIHWVRQAPGQGLEWMGRINPNSGGANYAHKFQGRVTMTRDTSSNTAYMEVSRLKSDDTAVYYCARRRAVANLDYHYYGMDVWGQGTTVTVSS
VL: DIVMTQSPSTLSASVGARVTITCRASQNINTYLNWYHQKPGKAPKLLIYAASSLQSGVPSRFSGSGSGTDFTLTISSLQPEDFATYYCQQSYSTPHTFGGGTKLEIK
notes: human
As for B1, the binding result was “no binding (tested: ~1 µM)” with BoNT/C1 holotoxin and “binds” with BoNT/D.

B2: 8DC14 scFv (scFv, V domains shown)
VH: QVQLVQSGGGVVQPGRSLRLSCVASGFTFSSYTMHWVRQAPGEGLEWVAGISNDGRNQYYSDSVKGRATISRDNSKDTLYLQMHSLRAEDTAVYYCAKANYHFILATTFHSWGQGTLVTVSS
VL: DIVMTQSPSSVSASVGDRVTITCRASQGISSWLAWYQQKPGKAPKLLIYAASSLQSGVPSRFSGSGSGTDFTLTISRLQPEDVATYYCQRYNSLPFTFGGGTKLEIK
notes: human
Regarding B2, the binding result is given as “no binding (tested: ~1 µM)” in the assay with BoNT/C1 holotoxin and “binds” in the assay with BoNT/D.

B3: 39H6 scFv (scFv, V domains shown)
VH: EVQLVPSGGNLVQPGGSLRLSCAATGPIGSHWMTWVRQAPGQGLEWVANINLDGTEKFYVDSVKGRFTVSRDNRKSSVFLQMNNLRVDDTAVYYCARLQWGGYNGWLSPWGQGTLVTVSS
VL: DIVMTQSPPSLSASVGDRVSLTCRASEYIGTSLNWYQQKPGKAPKLLIYAASALHSGVPSRFSGSGSGTDFTLTISGLQPEDFATYYCQQANDLPLTFGGGTKLEIK
In assay [1], B3 came in with a Kd of 0.526 nM. The binding result with BoNT/F 202F is recorded as “binds”.

B4: 39D5.1 scFv (scFv, V domains shown)
VH: B3 VH with P6Q, N49S
VL: B3 VL
On to B4, for which, in assay [1], the Kd worked out at 1.77 nM. Besides, the binding result in the assay with BoNT/F 202F is on record as “binds”.

B5: 39A1 scFv (scFv, V domains shown)
VH: B3 VH with L4Q, P6Q
VL: B3 VL
B5 gave a dissociation constant (Kd) in assay [1] of 0.588 nM. Besides, in the assay with BoNT/F 202F, the binding result is reported as “binds”.

The values above are taken from patent US20220089784A1 (University of California, published 2022).
